According to patent publication US20190071480A1 (Biogen, published 2019):

Assays:
[1] = target: T1, extracellular domain of activin receptor type IIB (ActRIIBecd), biotinylated (Homo sapiens (Human), UniProt Q13705 27-117, amino-biotinylated with amine-PEG3-Biotin); test: Mean KD column of Table 5; method not restated (BIAcore as Example 5); species also listed in Table 4
T1 construct: immobilised on a streptavidin-coated sensor chip; also called biotinylated ActRIIBecd; extracellular domain of ActRIIB
T1 sequence: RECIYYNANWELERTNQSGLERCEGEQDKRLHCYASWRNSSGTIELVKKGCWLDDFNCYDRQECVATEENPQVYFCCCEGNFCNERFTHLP
Protocol: (§1) Biosensor experiments. In one embodiment, experiments were performed on a BIAcore™ T100/T200 instrument (Pharmacia Biosensor AB) in the multichannel mode (serial flow path involving flow cells 1+2+3+4). Flow rate was 10 μl/min; temperature was 25° C.; and data were recorded at 2.5 points/s. All four segments of a sensor chip CMS were coated with streptavidin (Sigma) to a density of 2000 pg/mm² (2000 resonance units) by the aminocoupling procedure. ActRIIBecd (10 mg) and amine-PEG3-Biotin (10 mg, Pierce, Rockford, Ill.) were dissolved in 200 μl H₂O and 10 mg NaCNBH₃ was added to prepare biotinylated ActRIIBecd. The reaction mixture was heated at 70° C. for 24 h, after that a further 10 mg NaCNBH₃ was added and the reaction was heated at 70° C. for another 24 h. After cooling to room temperature, the mixture was desalted with the spin column (3,000 molecular weight cut off (MWCO)). Biotinylated ActRIIBecd was collected, freeze-dried and used for streptavidin (SA) chip preparation. Amino-biotinylated ActRIIBecd was then immobilized independently on flow cells 2-4 for 10 minutes at a flow rate of 5 μL/min and a concentration of 20 μM in 10 mM sodium acetate, pH 4.0, at a density of 50-250 resonance units (RU). The stored polypeptides were dissolved in glycine buffer (2.5 g of glycine, 0.5 g of sucrose, 370 mg of L-glutamate, 10 mg of sodium chloride, and 10 mg of Tween 80 in 100 mL water, pH 4.5) to prepare 10 mg/mL solution and then diluted with previous glycine buffer to prepare analytes with various concentration. Sensograms were recorded during flow of the analyte (the ActRIIBecd-associated polypeptides (i.e., domains) as previously described) first through flow cell 1 (control) then through flow cell 2 (biotinylated ActRIIBecd). The sensogram obtained for flow cell 1 was subtracted from the sensogram obtained for flow cell 2. The sensograms obtained at 1.11, 3.33, 10, 30, and 90 nM analyte were evaluated for equilibrium binding, association rate, and dissociation rate by using the programs supplied with the instrument (BIA evaluation 2.1; Software Handbook. 1995; Pharmacia Biosensor AB).

[2] = target: T1, extracellular domain of activin …; test: BIAcore SPR as Example 5 (method not restated); SD ±1.74 nM
Protocol: as §1, with “Biotinylated ActRIIBecd was collected, freeze-dried and used for streptavidin (SA) chip preparation. Amino-biotinylated ActRIIBecd was then immobilized independently on flow cells 2-4 for 10 minutes at a flow rate of 5 μL/min and a concentration of 20 μM in 10 mM sodium acetate, pH 4.0, at a density of 50-250 resonance units (RU). The stored polypeptides were dissolved in glycine buffer (2.5 g of glycine, 0.5 g of sucrose, 370 mg of L-glutamate, 10 mg of sodium chloride, and 10 mg of Tween 80 in 100 mL water, pH 4.5) to prepare 10 mg/mL solution and then diluted with previous glycine buffer to prepare analytes with various concentration.” left out, “The sensogram obtained for flow cell 1 was subtracted from the sensogram obtained for flow cell 2.” left out

[3] = target: T1, extracellular domain of activin …; test: BIAcore SPR as Example 5 (method not restated); SD ±1.07 nM
Protocol: as §1, with “Biotinylated ActRIIBecd was collected, freeze-dried and used for streptavidin (SA) chip preparation. Amino-biotinylated ActRIIBecd was then immobilized independently on flow cells 2-4 for 10 minutes at a flow rate of 5 μL/min and a concentration of 20 μM in 10 mM sodium acetate, pH 4.0, at a density of 50-250 resonance units (RU). The stored polypeptides were dissolved in glycine buffer (2.5 g of glycine, 0.5 g of sucrose, 370 mg of L-glutamate, 10 mg of sodium chloride, and 10 mg of Tween 80 in 100 mL water, pH 4.5) to prepare 10 mg/mL solution and then diluted with previous glycine buffer to prepare analytes with various concentration.” left out, “The sensogram obtained for flow cell 1 was subtracted from the sensogram obtained for flow cell 2.” left out

[4] = target: T1, extracellular domain of activin …; test: BIAcore SPR, biotinylated ActRIIBecd on chip; SD ±16.41 nM
Protocol: as §1, with “Biotinylated ActRIIBecd was collected, freeze-dried and used for streptavidin (SA) chip preparation. Amino-biotinylated ActRIIBecd was then immobilized independently on flow cells 2-4 for 10 minutes at a flow rate of 5 μL/min and a concentration of 20 μM in 10 mM sodium acetate, pH 4.0, at a density of 50-250 resonance units (RU). The stored polypeptides were dissolved in glycine buffer (2.5 g of glycine, 0.5 g of sucrose, 370 mg of L-glutamate, 10 mg of sodium chloride, and 10 mg of Tween 80 in 100 mL water, pH 4.5) to prepare 10 mg/mL solution and then diluted with previous glycine buffer to prepare analytes with various concentration.” left out, “The sensogram obtained for flow cell 1 was subtracted from the sensogram obtained for flow cell 2.” left out

[5] = target: T1, extracellular domain of activin …; test: BIAcore SPR as Example 5 (method not restated); SD ±1.37 nM
Protocol: as §1, with “Biotinylated ActRIIBecd was collected, freeze-dried and used for streptavidin (SA) chip preparation. Amino-biotinylated ActRIIBecd was then immobilized independently on flow cells 2-4 for 10 minutes at a flow rate of 5 μL/min and a concentration of 20 μM in 10 mM sodium acetate, pH 4.0, at a density of 50-250 resonance units (RU). The stored polypeptides were dissolved in glycine buffer (2.5 g of glycine, 0.5 g of sucrose, 370 mg of L-glutamate, 10 mg of sodium chloride, and 10 mg of Tween 80 in 100 mL water, pH 4.5) to prepare 10 mg/mL solution and then diluted with previous glycine buffer to prepare analytes with various concentration.” left out, “The sensogram obtained for flow cell 1 was subtracted from the sensogram obtained for flow cell 2.” left out

B1: SEQ ID NO: 254, cysteine pairs C23-C27^a, C58-C91^a, C59-C93^a (designed binder)
chain: VDFKDVGWNDHAVAPPGYHAFYCHGECPFPLADHLNSDNHAIVQTKVNSVNSKDPKACCVPTELSAPSPLYLDENEKPVLKNYQDMVVHGCGCR
modifications: disulfides C23-C27 (intra), C58-C91 (intra), C59-C93 (intra)
What does the source list for B1?
Kd [1]: 0.0175 µM; Kd [2]: 0.0175 µM

B2: SEQ ID NO: 248, cysteine pairs C67-C71^a, C8-C41^a, C9-C43^a (designed binder)
chain: NSKDPKACCVPTELSAPSPLYLDENEKPVLKNYQDMVVHGCGCRVDFKDVGWNDHAVAPPGYHAFYCHGECPFPLADHLNSDNHAIVQTKVNSV
modifications: disulfides C67-C71 (intra), C8-C41 (intra), C9-C43 (intra)
With B2 as the binder, how does the Kd [1] read?
The Kd was 0.0185 µM.

What about the Kd [2] of the same binder?
The Kd was 0.0185 µM.

B3: SEQ ID NO: 348, cysteine pairs C15-C15^b, C29-C62^a, C30-C64^a, C88-C92^a (designed binder)
chain: GQAKRKGYKRLKSSCKRHPLYNSKIPKACCVPTELSAISMLYLDENEKVVLKNYQDMVVEGCGCRVDFSDVGWNDWIVAPPGYHAFYCHGECPFPLADHLNSTNHAIVQTLVNSV
modifications: disulfides C15-C15 (inter), C29-C62 (intra), C30-C64 (intra), C88-C92 (intra)
notes: homodimer by intermolecular disulfide
With B3 as the binder, how does the Kd [1] read?
Its Kd is 0.0051 µM.

And the Kd [3]?
Its Kd is 0.0051 µM.

B4: Clone No. 30 domain (ActRIIBecd-associated polypeptide) (peptide)
chain: TALDGTRGAQGSGGGGGGGGGGGGGGGGGGGGAGRGHGRRGRSRCSRKSLHVDFKELG
How did the Kd [4] turn out when B4 was run?
The Kd was 0.0617 µM.

B5: SEQ ID NO: 292, cysteine pairs C80-C114^a, C79-C112^a, C44-C48^a (designed binder)
chain: GQAKRKGYKRLKSSCKRHPLYVDFKDVGWNDHAVAPPGYHAFYCHGECPFPLADHLNSDNHAIVQTKVNSVNSKDPKACCVPTELSAPSPLYLDENEKPVLKNYQDMVVHGCGCR
modifications: disulfides C80-C114 (intra), C79-C112 (intra), C44-C48 (intra)
Which Kd [1] does the source give for B5 here?
The Kd was 0.00619 µM.

What about the Kd [5] of the same binder?
Its Kd is 0.00619 µM.
